Source: article PMC4303305 (Biochemistry, 2014)
Like-named read-outs stand apart in the source and are kept apart here.

How the values were obtained:
SEC [1] = biological target: the molecule itself; experiment: SEC
SEC [2] = biological target: the molecule itself; experiment: SEC; remark: listed apart in the source

| Protein | stoichiometry N (SEC [1]) | stoichiometry N (SEC [2]) |
| --- | --- | --- |
| NP1(K1A) (natural protein, Rhodnius prolixus, UniProt Q26239 24-207, looked up) ACTKNALAQTGFNKDKYFNGDVWYVTDYLDLEPDDVPKRYCAALAAGTASGKLKEALYHYDPKTQDTFYDVSELQEESPGKYTANFKKVEKNGNVKVDVTSGNYYTFTVMYADDSSALIHTCLHKGNKDLGDLYAVLNRNKDTNAGDKVKGAVTAASLKFSDFISTKDNKCEYDNVSLKSLLTK | 2 |  |
| native N-terminal NP1 with C-terminal His6 tag (natural protein, Rhodnius prolixus, UniProt Q26239 24-207, looked up) KCTKNALAQTGFNKDKYFNGDVWYVTDYLDLEPDDVPKRYCAALAAGTASGKLKEALYHYDPKTQDTFYDVSELQEESPGKYTANFKKVEKNGNVKVDVTSGNYYTFTVMYADDSSALIHTCLHKGNKDLGDLYAVLNRNKDTNAGDKVKGAVTAASLKFSDFISTKDNKCEYDNVSLKSLLTK | 2 |  |
| NP4(K38Q/R39Q/K125Q) (natural protein, Rhodnius prolixus, UniProt Q94734 22-205, looked up) ACTKNAIAQTGFNKDKYFNGDVWYVTDYLDLEPDDVPQQYCAALAAGTASGKLKEALYHYDPKTQDTFYDVSELQVESLGKYTANFKKVDKNGNVKVAVTAGNYYTFTVMYADDSSALIHTCLHQGNKDLGDLYAVLNRNKDAAAGDKVKSAVSAATLEFSKFISTKENNCAYDNDSLKSLLTK |  | 2 |
